The results in this text go back to patent publication US20230374132A1 (Innovent, published 2023).

First the molecules themselves.
B1: hzsp34.8 (antibody, human IgG1, lambda, L234A L235A, V domains shown)
VH: EVQLVESGGGLVQPGGSLKLSCAASGFTFNTYAMNWVRQASGKGLEWVGRIRSKYNNYATYYADSVKDRFTISRDDSKSTLYLQMNSLKTEDTAVYYCARHGNFGNSYVSWFAYWGQGTTVTVSS
VL: QAVVTQEPSLTVSPGGTVTLTCRSSTGAVTTSNYANWFQQKPGQAPRTLIYGTNKRAPWTPARFSGSLLGGKAALTLLGAQPEDEAEYYCALWYSNLWVFGQGTKLTVLG
notes: IgG1 L234A L235A, lambda
B2: hzsp34.20 (antibody, human IgG1, lambda, L234A L235A, V domains shown)
VH: B1 VH with G49A, N106Q
VL: B1 VL with F38V, T48G, Y51G, W59G, T60V
notes: IgG1 L234A L235A, lambda
B3: hzsp34.15 (antibody, human IgG1, lambda, L234A L235A, V domains shown)
VH: B1 VH with G49A, N106Q
VL: B1 VL with F38V, Y51G, W59G, T60V
notes: IgG1 L234A L235A, lambda
B4: hzsp34.18 (antibody, human IgG1, lambda, L234A L235A, V domains shown)
VH: B1 VH
VL: B1 VL with F38V, T48G, Y51G, W59G, T60V
notes: IgG1 L234A L235A, lambda
B5: hzsp34.10 (antibody, human IgG1, lambda, L234A L235A, V domains shown)
VH: B1 VH with G49A, N106Q
VL: B1 VL
notes: IgG1 L234A L235A, lambda
B6: hzsp34.9 (antibody, human IgG1, lambda, L234A L235A, V domains shown)
VH: B1 VH with N106Q
VL: B1 VL
notes: IgG1 L234A L235A, lambda
B7: hzsp34.14 (antibody, human IgG1, lambda, L234A L235A, V domains shown)
VH: B1 VH with N106Q
VL: B1 VL with F38V, Y51G, W59G, T60V
notes: IgG1 L234A L235A, lambda
B8: hzsp34.19 (antibody, human IgG1, lambda, L234A L235A, V domains shown)
VH: B1 VH with N106Q
VL: B1 VL with F38V, T48G, Y51G, W59G, T60V
notes: IgG1 L234A L235A, lambda
B9: hzsp34.17 (antibody, human IgG1, lambda, L234A L235A, V domains shown)
VH: B1 VH with S79N
VL: B1 VL with F38V, T48G, Y51G, W59G, T60V
notes: IgG1 L234A L235A, lambda
B10: hzsp34.115 (antibody, human IgG1, lambda, L234A L235A, V domains shown)
VH: B1 VH with N106Q
VL: B1 VL with F38V, T48G, Y51G, K55S, W59G, T60V, G71D
notes: CDR mutant of hzsp34.24; IgG1 L234A L235A, lambda

Numbering of substitutions follows the chain as printed. In names and notes the source's numbering stands.

T2 sequence (P07766 23-126, chain 1 of 2): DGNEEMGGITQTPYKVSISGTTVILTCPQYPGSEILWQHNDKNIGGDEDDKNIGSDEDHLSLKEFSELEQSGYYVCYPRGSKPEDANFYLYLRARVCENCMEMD
T2 sequence (P04234 22-105, chain 2 of 2): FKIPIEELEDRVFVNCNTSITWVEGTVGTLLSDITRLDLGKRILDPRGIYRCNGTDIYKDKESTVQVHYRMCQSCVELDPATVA

The target of the first experiment is T1, cynomolgus monkey CD3 E&D complex protein (Sino Biological Inc., CT032-00323H) (cynomolgus monkey, UniProt Q95LI5 22-117; Q95LI8 22-105).
T1 construct: bought heterodimer
T1 sequence (Q95LI5 22-117, chain 1 of 2): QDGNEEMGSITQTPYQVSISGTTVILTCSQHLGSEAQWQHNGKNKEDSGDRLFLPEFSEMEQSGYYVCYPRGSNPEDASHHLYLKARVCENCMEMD
T1 sequence (Q95LI8 22-105, chain 2 of 2): as the sequence (P04234 22-105, chain 2 of 2) above, with I5V, N15K, I20V, S32T, D33N, I34N, T64A, S74N, V83L counted along it
Kind of experiment: BLI, antibody on sensor. On the procedure:
(§1) 100 μl SD buffer, various antibodies, human CD3 E&D complex protein (Sino Biological Inc., CT026H0323H), and cynomolgus monkey CD3 E&D complex protein (Sino Biological Inc., CT032-00323H) were added into 96-well black polystyrene semi-quantitative micro-well plate (Greiner, 675076) respectively. Fortebio Octet Red 96 was used for detection, and the sensor position was selected according to the sample position. The setting parameters of the instrument are as follows: operation steps: Baseline, Loading-1 nm, Baseline, Association and Dissociation; the operation time of each step depends on the speed of sample association and dissociation. The rotational speed is 1000 rpm and the temperature is 30° C. ForteBio Octet analysis software was used to analyze KD value.
A general note: BLI is a label-free optical method that tracks binding on a fibre tip over time.
As to B1, the binding result is reported as “no binding”.

One may read the Kd as the free concentration of one partner at which half of the binding sites on the other are occupied at equilibrium, for simple one-to-one binding. The term koff denotes the rate constant with which the complex falls apart. A word on the kon: it is the second-order rate constant of association. Turning to B2, the Kd came out at 0.756 nM, the off-rate constant (koff) came out at 0.0011 s⁻¹ and the kon was found to be 1.46e+06 M⁻¹ s⁻¹.

B3 yielded a Kd of 1.75 nM, a koff of 0.00115 s⁻¹ and a kon of 658000 M⁻¹ s⁻¹.

B4 returned a Kd of 0.67 nM, an off-rate constant (koff) of 0.00088 s⁻¹ and a kon of 1.31e+06 M⁻¹ s⁻¹.

For B5, the binding result is recorded as “no binding”.

As for B6, the binding result is recorded as “no binding”.

Turning to B7, binding was characterised by a dissociation constant (Kd) of 0.195 nM, the koff was 9.49e-05 s⁻¹ and the kon is 488000 M⁻¹ s⁻¹.

For B8, the affinity, expressed as Kd, was 0.602 nM; the koff came out at 0.00099 s⁻¹; the kon stood at 1.64e+06 M⁻¹ s⁻¹.

Regarding B9, binding was put at a Kd of 0.514 nM, the koff is 0.000915 s⁻¹ and the kon is 1.78e+06 M⁻¹ s⁻¹.

A further experiment addresses T2, human CD3 E&D complex protein (Sino Biological Inc., CT026H0323H) (human, UniProt P07766 23-126; P04234 22-105).
T2 construct: bought heterodimer; also called human CD3 protein (CT026H0323H)
Kind of experiment: BLI, antibody on sensor. On the procedure:
as §1
For the molecule B1, the binding result is listed as “no binding”.

As for B2, the Kd came out at 0.847 nM, the koff was 0.00275 s⁻¹ and the kon is 3.25e+06 M⁻¹ s⁻¹.

Turning to B3, binding was characterised by a dissociation constant (Kd) of 3.13 nM, the koff was 0.00202 s⁻¹ and the kon stood at 644000 M⁻¹ s⁻¹.

As to B4, binding was characterised by a dissociation constant (Kd) of 0.629 nM, the koff was determined as 0.00208 s⁻¹ and the association rate constant (kon) is 3.31e+06 M⁻¹ s⁻¹.

For B5, the binding result was “no binding”.

B6: the binding result is “no binding”.

For the molecule B7, binding was put at a Kd of 2.41 nM, the koff amounted to 0.00159 s⁻¹ and the kon was determined as 661000 M⁻¹ s⁻¹.

For B8, the Kd turned out to be 0.613 nM, the koff stood at 0.00233 s⁻¹ and the kon was 3.8e+06 M⁻¹ s⁻¹.

Consider B9, for which the affinity, expressed as Kd, was 0.51 nM; the koff worked out at 0.00206 s⁻¹; the kon was 4.04e+06 M⁻¹ s⁻¹.

In another experiment the target is T2, human CD3 E&D complex protein (Sino …). Kind of experiment: BLI, antibody on sensor. This is another data set of the same source.
B10 yielded a Kd of 1.26 nM, a koff of 0.000331 s⁻¹ and an association rate constant (kon) of 264000 M⁻¹ s⁻¹.

For a further experiment, the target named is T3, human CD3E&G complex (Sino Biological Inc., CT041-H0305H) (human, UniProt P07766 23-126; P09693 23-116).
T3 construct: bought heterodimer; also called human CD3E&G antigen
T3 sequence (P07766 23-126, chain 1 of 2): as the sequence (P07766 23-126, chain 1 of 2) above
T3 sequence (P09693 23-116, chain 2 of 2): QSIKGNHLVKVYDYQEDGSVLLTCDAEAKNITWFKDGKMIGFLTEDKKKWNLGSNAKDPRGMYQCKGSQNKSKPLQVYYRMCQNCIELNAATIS
Kind of experiment: BLI, antibody on sensor.
Regarding B10, the Kd is 7.7 nM, the koff was 0.00184 s⁻¹ and the kon is 238000 M⁻¹ s⁻¹.
